Earlier results on two substances are cited in article PMC3623542.

Read-outs that look alike come from different tables or passages of the source.

The target of series [1] is DnaK (Escherichia coli) (UniProt P0A6Y8). In words: NMR.
Series [2] has the same target. As to the kind of experiment: SPR.
Series [3] shares this target. In words: SPR. The source holds these as a separate data set.
Series [4] has the same target. As to the kind of experiment: SPR. This is another data set of the same source.
The target is the same in series [5].
Series [6] shares this target. This is another data set of the same source.

Sequence of DnaJ (P08622 2-376): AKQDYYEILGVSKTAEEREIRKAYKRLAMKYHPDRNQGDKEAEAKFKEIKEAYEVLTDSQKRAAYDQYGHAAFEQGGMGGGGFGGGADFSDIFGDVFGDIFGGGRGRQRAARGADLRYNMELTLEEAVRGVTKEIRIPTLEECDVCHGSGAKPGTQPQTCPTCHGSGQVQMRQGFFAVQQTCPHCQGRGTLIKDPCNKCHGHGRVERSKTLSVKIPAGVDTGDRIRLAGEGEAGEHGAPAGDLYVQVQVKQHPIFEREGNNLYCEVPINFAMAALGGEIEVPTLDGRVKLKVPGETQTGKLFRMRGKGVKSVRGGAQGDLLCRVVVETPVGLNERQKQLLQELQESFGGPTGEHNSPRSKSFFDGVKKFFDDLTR
Sequence of DnaK (Escherichia coli) (P0A6Y8 2-638): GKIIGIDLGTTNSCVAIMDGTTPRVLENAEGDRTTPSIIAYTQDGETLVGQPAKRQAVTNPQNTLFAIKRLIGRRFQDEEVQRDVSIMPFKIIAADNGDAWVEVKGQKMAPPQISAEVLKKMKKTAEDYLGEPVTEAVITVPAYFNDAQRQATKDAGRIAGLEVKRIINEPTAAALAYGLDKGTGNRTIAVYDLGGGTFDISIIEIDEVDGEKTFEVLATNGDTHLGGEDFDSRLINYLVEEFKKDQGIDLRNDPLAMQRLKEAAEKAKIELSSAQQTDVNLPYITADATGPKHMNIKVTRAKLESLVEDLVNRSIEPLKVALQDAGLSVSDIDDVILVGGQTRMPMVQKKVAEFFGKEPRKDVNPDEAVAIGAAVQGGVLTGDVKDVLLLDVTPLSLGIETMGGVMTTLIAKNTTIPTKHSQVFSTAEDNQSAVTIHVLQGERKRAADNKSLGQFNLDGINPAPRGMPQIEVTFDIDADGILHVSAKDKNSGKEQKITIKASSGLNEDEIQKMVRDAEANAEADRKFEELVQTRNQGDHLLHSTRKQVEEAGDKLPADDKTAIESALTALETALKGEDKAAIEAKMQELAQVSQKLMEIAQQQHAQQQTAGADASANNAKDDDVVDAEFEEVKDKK
Sequence of DnaJ 1-75 (P08622 1-75): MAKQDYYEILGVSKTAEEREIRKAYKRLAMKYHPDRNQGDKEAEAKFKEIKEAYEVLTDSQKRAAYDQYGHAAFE

Turning to DnaJ 1-75 (from UniProt P08622), the Kd in series [1] is 10000 nM.
DnaJ (from UniProt P08622): the Kd is greater than 1000 nM in series [2]; 70 nM in series [3]; 300 nM in series [4]; 140 nM in series [5]; greater than 2000 nM in series [6].

What is called Kd is the free concentration of one partner at which half of the binding sites on the other are occupied at equilibrium, for simple one-to-one binding.
